± gives the standard error. Variants at the floor of the assay were thinned out.
B1: glmS ribozyme (parent)
chain: AUAAAAGCGCCAGAACUACAGAAAUGUAGUUGACGAGGAGGAGGUUUAUCGAAUUUUCGGCGGAUGCCUCCAAA

Legend:
Conditions in all cases: with glucosamine-6-phosphate
glucosamine-6-phosphate [1] = variants of: B1; experiment: self-cleavage kobs at 40 uM GlcN6P; higher = faster cleavage; RNA array
In short: (§1)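 Over ~14 h at 37 °C, tiles were imaged as glucosamine-6-phosphate (40 μM to 10 mM) in HEPES/KCl/Mg(OAc)2 buffer flowed across sequenced MiSeq chips. The chips carried barcoded ribozyme variants transcribed in situ by E. coli RNA polymerase and tracked with a hybridised Cy3 probe. After normalisation to baseline and to non-cleaving reference variants, one- or two-exponential decay fits of per-tile medians gave kobs. kcat and KM followed from weighted Michaelis–Menten fits across concentrations.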

glucosamine-6-phosphate [2] = variants of: B1; experiment: self-cleavage kobs at 640 uM GlcN6P; higher = faster cleavage; RNA array
In short: as §1

glucosamine-6-phosphate [3] = variants of: B1; experiment: self-cleavage kobs at 2500 uM GlcN6P; higher = faster cleavage; RNA array
In short: as §1

glucosamine-6-phosphate [4] = variants of: B1; experiment: self-cleavage kobs at 10000 uM GlcN6P; higher = faster cleavage; RNA array
In short: as §1

glucosamine-6-phosphate [5] = variants of: B1; experiment: self-cleavage kobs at 160 uM GlcN6P; higher = faster cleavage; RNA array
In short: as §1

Variant | self-cleavage kobs at 40 uM GlcN6P (glucosamine-6-phosphate [1]) [s⁻¹] | self-cleavage kobs at 640 uM GlcN6P (glucosamine-6-phosphate [2]) [s⁻¹] | self-cleavage kobs at 2500 uM GlcN6P (glucosamine-6-phosphate [3]) [s⁻¹] | self-cleavage kobs at 10000 uM GlcN6P (glucosamine-6-phosphate [4]) [s⁻¹] | self-cleavage kobs at 160 uM GlcN6P (glucosamine-6-phosphate [5]) [s⁻¹]
A39C A48C U55C C58U | < 1e-05 | < 1e-05 | < 1e-05 | – | –
A39U C68U C71G | < 1e-05 | – | – | 4.42e-05 ± 2e-05 | –
G41C A48U | < 1e-05 | < 1e-05 | – | – | < 1e-05
G40A C71G | 0.000326 ± 5.2e-05 | 0.00161 ± 0.00038 | 0.00373 ± 0.0013 | 0.00695 ± 0.0013 | 0.00034 ± 0.00014
G41C G44U U47G | < 1e-05 | – | – | – | –
G37U G43U | < 1e-05 | < 1e-05 | – | < 1e-05 | –
G37U G43C | < 1e-05 | – | < 1e-05 | < 1e-05 | < 1e-05
G41U C58G | < 1e-05 | < 1e-05 | < 1e-05 | < 1e-05 | < 1e-05
A39G G60U | < 1e-05 | < 1e-05 | – | – | < 1e-05
G41U G62U | < 1e-05 | < 1e-05 | < 1e-05 | < 1e-05 | < 1e-05
G37U G41A C68U | < 1e-05 | – | – | – | –
G40A U45G | 5.96e-05 ± 1.5e-05 | 0.000563 ± 0.00021 | 0.000133 ± 4.2e-05 | 0.000145 ± 3.5e-05 | –
A39G A53C | 0.000254 ± 5.4e-05 | 0.00303 ± 0.00075 | 0.0068 ± 0.0017 | 0.0216 ± 0.0083 | 0.000658 ± 0.00016
A42C A64G | < 1e-05 | < 1e-05 | – | – | < 1e-05
G41C G43U | < 1e-05 | < 1e-05 | < 1e-05 | < 1e-05 | < 1e-05
G38C U57C | < 1e-05 | – | – | < 1e-05 | < 1e-05
G38A C67U C71A | < 1e-05 | – | – | < 1e-05 | –
A39C G51C C71G | < 1e-05 | – | – | < 1e-05 | –
G37U C58U G63A | < 1e-05 | – | – | – | –
G41U G63U | < 1e-05 | < 1e-05 | < 1e-05 | < 1e-05 | < 1e-05
A39U G51U C67U | < 1e-05 | < 1e-05 | < 1e-05 | < 1e-05 | < 1e-05
G41C G44C | < 1e-05 | < 1e-05 | < 1e-05 | < 1e-05 | < 1e-05
G41U G43U | < 1e-05 | < 1e-05 | < 1e-05 | < 1e-05 | –

Variant | self-cleavage kobs at 40 uM GlcN6P (glucosamine-6-phosphate [1]) [s⁻¹] | self-cleavage kobs at 640 uM GlcN6P (glucosamine-6-phosphate [2]) [s⁻¹] | self-cleavage kobs at 2500 uM GlcN6P (glucosamine-6-phosphate [3]) [s⁻¹] | self-cleavage kobs at 10000 uM GlcN6P (glucosamine-6-phosphate [4]) [s⁻¹] | self-cleavage kobs at 160 uM GlcN6P (glucosamine-6-phosphate [5]) [s⁻¹]
A39C U55G | 0.000197 ± 7e-05 | 0.00104 ± 0.00022 | – | – | 0.000315 ± 8.7e-05
G41A A48G | < 1e-05 | < 1e-05 | < 1e-05 | – | < 1e-05
G40U U56A | 6.75e-05 ± 1.3e-05 | 0.000381 ± 4.4e-05 | 0.00116 ± 0.00022 | 0.00344 ± 0.00064 | 0.000124 ± 3.2e-05
G40A G63A | < 1e-05 | – | < 1e-05 | < 1e-05 | –
G41C | 1.75e-05 ± 1.7e-06 | 0.000131 ± 3.6e-06 | 0.000529 ± 4.7e-05 | 0.00255 ± 0.00067 | 4.15e-05 ± 1.9e-06
G38U G44A | < 1e-05 | < 1e-05 | < 1e-05 | < 1e-05 | < 1e-05
G38U A52G U69G | 0.000147 ± 5.7e-05 | – | – | 7.13e-05 ± 1.9e-05 | –
G38U U47G C70G | 0.000113 ± 3.3e-05 | – | – | 9.01e-05 ± 2.3e-05 | –
A39G U45C U57C C70U C71U | < 1e-05 | – | – | – | –
A39U A42G U56G A64C | < 1e-05 | – | – | 4.69e-05 ± 1.8e-05 | –
G40A C61U | < 1e-05 | < 1e-05 | – | – | < 1e-05
G41A G62U C67G | < 1e-05 | – | – | – | –
G38C G63U | < 1e-05 | – | – | – | –
G41U U46G C67U | < 1e-05 | < 1e-05 | – | – | < 1e-05
A42G G62A | < 1e-05 | < 1e-05 | < 1e-05 | < 1e-05 | < 1e-05
G41U G59U | < 1e-05 | < 1e-05 | – | – | < 1e-05
A42G C50U G63U C71G | < 1e-05 | – | – | < 1e-05 | –
G40C G43U C70A | < 1e-05 | – | – | < 1e-05 | –
A39U G66A | 0.000403 ± 0.00015 | 0.00167 ± 0.00076 | 0.00655 ± 0.0022 | 0.0134 ± 0.0056 | 0.000797 ± 0.00024
G40C C61G | < 1e-05 | < 1e-05 | < 1e-05 | < 1e-05 | < 1e-05
G41C U45G | < 1e-05 | – | – | 9.46e-05 ± 1.7e-05 | –
G38U G44U U49C | < 1e-05 | – | – | < 1e-05 | –
G40A U46G | 4.29e-05 ± 1.2e-05 | – | 0.000841 ± 0.00023 | 0.00152 ± 0.00029 | –

Variant | self-cleavage kobs at 40 uM GlcN6P (glucosamine-6-phosphate [1]) [s⁻¹] | self-cleavage kobs at 640 uM GlcN6P (glucosamine-6-phosphate [2]) [s⁻¹] | self-cleavage kobs at 2500 uM GlcN6P (glucosamine-6-phosphate [3]) [s⁻¹] | self-cleavage kobs at 10000 uM GlcN6P (glucosamine-6-phosphate [4]) [s⁻¹] | self-cleavage kobs at 160 uM GlcN6P (glucosamine-6-phosphate [5]) [s⁻¹]
G40U U54A | 7.88e-05 ± 1.1e-05 | 0.000391 ± 5.1e-05 | 0.00192 ± 0.00039 | 0.0025 ± 0.00054 | 0.000207 ± 2.7e-05
G40U U54G | 0.000133 ± 1.9e-05 | 0.00124 ± 0.00029 | 0.00192 ± 0.00049 | 0.00364 ± 0.00066 | –
A39C A52G G59U U69G | < 1e-05 | – | – | – | –
G38A G51U A52U | < 1e-05 | – | – | < 1e-05 | –
G41U U45A | 8.05e-05 ± 2.1e-05 | – | – | 0.000309 ± 5.5e-05 | –
A39G U55G C67A | 0.000369 ± 0.00011 | – | – | 0.0117 ± 0.003 | –
G41A G60U | < 1e-05 | < 1e-05 | – | < 1e-05 | –
G41A U49C | < 1e-05 | < 1e-05 | < 1e-05 | – | < 1e-05
G40A G62U | < 1e-05 | < 1e-05 | – | < 1e-05 | < 1e-05
A39U U55A U56C | 2.36e-05 ± 8.3e-06 | – | – | 0.00213 ± 0.00023 | –
A39G U47C | 0.000381 ± 6e-05 | 0.00353 ± 0.0012 | 0.00728 ± 0.0026 | 0.0217 ± 0.0054 | –
A39G U47G | 0.000644 ± 0.0001 | 0.00207 ± 0.00049 | 0.0155 ± 0.0035 | 0.0237 ± 0.0069 | –
A42G G51A A52U | < 1e-05 | – | < 1e-05 | – | –
G41U G62A G63U | < 1e-05 | – | – | < 1e-05 | –
A39U G51U | < 1e-05 | < 1e-05 | – | < 1e-05 | –
A39C G62U | < 1e-05 | – | < 1e-05 | < 1e-05 | –
G38U C61U U69C C71G | 6.15e-05 ± 2.4e-05 | – | – | 4.2e-05 ± 1.5e-05 | –
A39G G40A | 0.000261 ± 8e-05 | 0.00167 ± 0.00076 | 0.00889 ± 0.0023 | – | –
G40U G60C | < 1e-05 | – | < 1e-05 | < 1e-05 | < 1e-05
A42C G51A | < 1e-05 | – | < 1e-05 | < 1e-05 | –
G40C C50U C58A C71G | < 1e-05 | – | – | < 1e-05 | –
G41C G51A A52U C67A | < 1e-05 | – | – | < 1e-05 | –
G41C G66A U69C | < 1e-05 | – | – | – | < 1e-05

Variant | self-cleavage kobs at 40 uM GlcN6P (glucosamine-6-phosphate [1]) [s⁻¹] | self-cleavage kobs at 640 uM GlcN6P (glucosamine-6-phosphate [2]) [s⁻¹] | self-cleavage kobs at 2500 uM GlcN6P (glucosamine-6-phosphate [3]) [s⁻¹] | self-cleavage kobs at 10000 uM GlcN6P (glucosamine-6-phosphate [4]) [s⁻¹] | self-cleavage kobs at 160 uM GlcN6P (glucosamine-6-phosphate [5]) [s⁻¹]
G38C G40C A64U | < 1e-05 | – | – | < 1e-05 | –
G38C U47A C70U | < 1e-05 | – | – | – | –
A42C C61A | < 1e-05 | – | < 1e-05 | < 1e-05 | < 1e-05
A42C C61G | < 1e-05 | < 1e-05 | < 1e-05 | – | < 1e-05
G38U U49A C58A | < 1e-05 | – | – | – | –
A39C G63U | < 1e-05 | < 1e-05 | – | < 1e-05 | –
A42C G63A C67G | < 1e-05 | – | – | – | –
A39C U49C | < 1e-05 | – | – | < 1e-05 | < 1e-05
G40A C50A C70G | < 1e-05 | – | – | – | –
G38U A48G G51U | < 1e-05 | – | – | < 1e-05 | –
A42G U47A | 0.000848 ± 0.00018 | 0.00967 ± 0.0013 | 0.0269 ± 0.0085 | 0.00752 ± 0.0028 | 0.00279 ± 0.0011
A39C A42U C67G | < 1e-05 | – | < 1e-05 | – | –
G37U A48U C68A | < 1e-05 | – | – | < 1e-05 | –
G37U G43C G66U | < 1e-05 | – | – | < 1e-05 | –
G41A U49G C67U C71U | < 1e-05 | – | – | < 1e-05 | –
G40U G44C | < 1e-05 | < 1e-05 | – | – | < 1e-05
A42G G44A A48G U57C C67A | < 1e-05 | – | – | – | –
G40U C61U | < 1e-05 | – | – | – | < 1e-05
G37U G40A | < 1e-05 | < 1e-05 | < 1e-05 | < 1e-05 | < 1e-05
G41C U49A | < 1e-05 | < 1e-05 | < 1e-05 | – | < 1e-05

From the supplement of paper PMC7125110
